# Measured values: patent US20120316071A1 (published 2012)
# T1: rHuman Erythropoietin R/Fc Chimera, CF (R&D Systems Cat#963-ER) (human, UniProt P19235 25-250)
# T1 construct: Bought recombinant protein; also called EPO R; EPO R/Fc; Fc part of the bought chimera not given
# T1 sequence (looked up): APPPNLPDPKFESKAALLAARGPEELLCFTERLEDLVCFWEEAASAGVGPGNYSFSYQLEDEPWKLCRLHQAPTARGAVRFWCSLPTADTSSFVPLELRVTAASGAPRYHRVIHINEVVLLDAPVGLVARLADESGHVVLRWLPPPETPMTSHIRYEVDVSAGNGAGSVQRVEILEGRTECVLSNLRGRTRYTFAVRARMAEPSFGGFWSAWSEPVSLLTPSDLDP
# T2: rHuman Erythropoietin R/Fc Chimera, CF (R&D Systems Cat#963-ER) (human, UniProt P19235 25-250)
# T2 construct: Bought recombinant Fc chimera; also called EPO R; EPO R/Fc; Fc part of the bought chimera not given
# T2 sequence (looked up): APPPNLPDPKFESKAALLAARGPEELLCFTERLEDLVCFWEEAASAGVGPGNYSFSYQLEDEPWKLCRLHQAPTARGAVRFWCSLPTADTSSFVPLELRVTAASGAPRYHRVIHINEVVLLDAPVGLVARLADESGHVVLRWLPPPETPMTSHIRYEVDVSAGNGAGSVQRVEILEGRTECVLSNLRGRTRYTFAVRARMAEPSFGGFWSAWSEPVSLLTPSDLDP
# B1: Fab VH5-51_IGHD5-18*01>3_IGHJ4*01 & V3-4_IGLJ1*01 (Fab, V domains shown)
# VH: EVQLVQSGAEVKKPGESLKISCKGSGYSFTSYWIGWVRQMPGKGLEWMGIIYPGDSDTRYSPSFQGQVTISADKSISTAYLQWSSLKASDTAMYYCARRGYSYGYDYFDYWGQGTLVTVSS
# VL: QTVVTQEPSFSVSPGGTVTLTCGLSSGSVSTSYYPSWYQQTPGQAPRTLIYSTNTRSSGVPDRFSGSILGNKAALTITGAQADDESDYYCVLYMGSGISYVFGTGTKVTVL
# notes: Tested as a Fab made in E. coli; The heavy chain vector (Plasmid A) adds CH1 with His6 and Flag tags, and the lambda light chain vector (Plasmid E) adds CL; also called Wt; wildtype
# B2: Fab VH5-51_IGHD5-18*01>3_IGHJ4*01 G100K/G104T/T58A & V3-4_IGLJ1*01 (Fab, V domains shown)
# VH: EVQLVQSGAEVKKPGESLKISCKGSGYSFTSYWIGWVRQMPGKGLEWMGIIYPGDSDARYSPSFQGQVTISADKSISTAYLQWSSLKASDTAMYYCARRKYSYTYDYFDYWGQGTLVTVSS
# VL: QTVVTQEPSFSVSPGGTVTLTCGLSSGSVSTSYYPSWYQQTPGQAPRTLIYSTNTRSSGVPDRFSGSILGNKAALTITGAQADDESDYYCVLYMGSGISYVFGTGTKVTVL
# notes: Fab expressed in E. coli: VH joined to CH1 (Plasmid A, His6 and Flag tags), VL joined to lambda CL (Plasmid E); also called H:KT T58A
# B3: Fab VH5-51_IGHD5-18*01>3_IGHJ4*01 G100K/G104T W33A & V3-4_IGLJ1*01 (Fab, V domains shown)
# VH: EVQLVQSGAEVKKPGESLKISCKGSGYSFTSYAIGWVRQMPGKGLEWMGIIYPGDSDTRYSPSFQGQVTISADKSISTAYLQWSSLKASDTAMYYCARRKYSYTYDYFDYWGQGTLVTVSS
# VL: QTVVTQEPSFSVSPGGTVTLTCGLSSGSVSTSYYPSWYQQTPGQAPRTLIYSTNTRSSGVPDRFSGSILGNKAALTITGAQADDESDYYCVLYMGSGISYVFGTGTKVTVL
# notes: Fab made in E. coli; VH cloned into Plasmid A (CH1, His6 and Flag tags), lambda VL into Plasmid E (lambda CL); also called KT W33A
# B4: Fab VH5-51_IGHD5-18*01>3_IGHJ4*01 G100K/G104T/S56G & V3-4_IGLJ1*01 (Fab, V domains shown)
# VH: EVQLVQSGAEVKKPGESLKISCKGSGYSFTSYWIGWVRQMPGKGLEWMGIIYPGDGDTRYSPSFQGQVTISADKSISTAYLQWSSLKASDTAMYYCARRKYSYTYDYFDYWGQGTLVTVSS
# VL: QTVVTQEPSFSVSPGGTVTLTCGLSSGSVSTSYYPSWYQQTPGQAPRTLIYSTNTRSSGVPDRFSGSILGNKAALTITGAQADDESDYYCVLYMGSGISYVFGTGTKVTVL
# notes: Fab expressed in E. coli: VH joined to CH1 (Plasmid A, His6 and Flag tags), VL joined to lambda CL (Plasmid E); also called H:KT S56G
# Experiments:
# [1] = biological target: T1, rHuman Erythropoietin R/Fc Chimera, CF …; assay: ECL multispot (MSD) assay, spotted antigen; Fab 0.20 (head prints uM)
# [2] = biological target: T3, Recombinant Human DLL4 (R&D Systems Cat#1506-D4/CF) (human, UniProt Q9NR61 27-524); assay: as above
# T3 construct: Bought recombinant protein; also called delta-like protein 4
# [3] = biological target: T4, rHuman ErbB2/Fc Chimera, CF (R&D Systems Cat#1129-ER) (human, UniProt P04626 23-652); assay: as above
# T4 construct: Bought recombinant protein; Fc part of the bought chimera not given
# [4] = biological target: T5, rHuman EGF R/Fc Chimera, CF (R&D Systems Cat#344-ER) (human, UniProt P00533 25-645); assay: as above
# T5 construct: Bought recombinant protein; Fc part of the bought chimera not given
# [5] = biological target: T6, rHuman Notch-1/Fc Chimera, CF (R&D Systems Cat#3647-TK) (human, UniProt P46531 19-526); assay: as above
# T6 construct: Bought recombinant protein; Fc part of the bought chimera not given
# [6] = biological target: T7, rHuman CD44/Fc Chimera, CF (R&D Systems Cat#3660-CD) (human, UniProt P16070 21-220); assay: as above
# T7 construct: Bought recombinant protein; Fc part of the bought chimera not given
# [7] = biological target: T8, rHuman IGF-1 sR, CF (R&D Systems Cat#391-GR) (human, UniProt P08069 31-932); assay: as above
# T8 construct: Bought soluble receptor; The column head prints only 'IGF-1'; also called insulin-like growth factor-1 soluble receptor
# [8] = biological target: T1, rHuman Erythropoietin R/Fc Chimera, CF …; assay: ECL multispot (MSD) assay, spotted antigen; Fab 2.00 (head prints uM)
# [9] = biological target: T3, Recombinant Human DLL4 (R&D Systems …); assay: as above
# [10] = biological target: T4, rHuman ErbB2/Fc Chimera, CF (R&D …); assay: as above
# [11] = biological target: T5, rHuman EGF R/Fc Chimera, CF (R&D …); assay: as above
# [12] = biological target: T6, rHuman Notch-1/Fc Chimera, CF (R&D …); assay: as above
# [13] = biological target: T7, rHuman CD44/Fc Chimera, CF (R&D Systems …); assay: as above
# [14] = biological target: T8, rHuman IGF-1 sR, CF (R&D Systems …); assay: as above
# [15] = biological target: T1, rHuman Erythropoietin R/Fc Chimera, CF …; assay: ECL multispot (MSD) assay, spotted antigen; Fab 20.00 (head prints uM)
# [16] = biological target: T3, Recombinant Human DLL4 (R&D Systems …); assay: as above
# [17] = biological target: T4, rHuman ErbB2/Fc Chimera, CF (R&D …); assay: as above
# [18] = biological target: T5, rHuman EGF R/Fc Chimera, CF (R&D …); assay: as above
# [19] = biological target: T6, rHuman Notch-1/Fc Chimera, CF (R&D …); assay: as above
# [20] = biological target: T7, rHuman CD44/Fc Chimera, CF (R&D Systems …); assay: as above
# [21] = biological target: T8, rHuman IGF-1 sR, CF (R&D Systems …); assay: as above
# [22] = biological target: T1, rHuman Erythropoietin R/Fc Chimera, CF …; assay: ECL multispot (MSD) assay, spotted antigen; Fab 200.00 (head prints uM)
# [23] = biological target: T3, Recombinant Human DLL4 (R&D Systems …); assay: as above
# [24] = biological target: T4, rHuman ErbB2/Fc Chimera, CF (R&D …); assay: as above
# [25] = biological target: T5, rHuman EGF R/Fc Chimera, CF (R&D …); assay: as above
# [26] = biological target: T6, rHuman Notch-1/Fc Chimera, CF (R&D …); assay: as above
# [27] = biological target: T7, rHuman CD44/Fc Chimera, CF (R&D Systems …); assay: as above
# [28] = biological target: T8, rHuman IGF-1 sR, CF (R&D Systems …); assay: as above
# [29] = biological target: T9, Recombinant Human DLL4 (delta-like protein 4) (human, UniProt Q9NR61 27-524); assay: ELISA, Fab on coated recombinant human DLL4, signal minus noise
# T9 construct: Bought recombinant human DLL4 (R&D Systems Cat#1506-D4/CF); also called rHuman DLL4; Delta-like 4
# [30] = biological target: T9, Recombinant Human DLL4 (delta-like …); assay: ECL (MSD electrochemiluminescence) binding assay, Fab on immobilised recombinant human DLL4
# [31] = biological target: T10, rHuman EGF R/Fc Chimera, CF (R&D Systems Cat#344-ER) (human, UniProt P00533 25-645); assay: MSD Multispot ECL, antigen spotted on plate, Fab in solution; blank spot of the row 240
# T10 construct: Bought recombinant Fc chimera; also called epidermal growth factor receptor; Fc part of the bought chimera not given
# [32] = biological target: T11, rHuman HGF R/c-MET/Fc Chimera, CF (R&D Systems Cat#358-MT/CF) (human, UniProt P08581 25-932); assay: as above
# T11 construct: Bought recombinant Fc chimera; also called HGF R/Fc; hepatocyte growth factor receptor; Fc part of the bought chimera not given
# T11 sequence (P08581 25-932, change not shown): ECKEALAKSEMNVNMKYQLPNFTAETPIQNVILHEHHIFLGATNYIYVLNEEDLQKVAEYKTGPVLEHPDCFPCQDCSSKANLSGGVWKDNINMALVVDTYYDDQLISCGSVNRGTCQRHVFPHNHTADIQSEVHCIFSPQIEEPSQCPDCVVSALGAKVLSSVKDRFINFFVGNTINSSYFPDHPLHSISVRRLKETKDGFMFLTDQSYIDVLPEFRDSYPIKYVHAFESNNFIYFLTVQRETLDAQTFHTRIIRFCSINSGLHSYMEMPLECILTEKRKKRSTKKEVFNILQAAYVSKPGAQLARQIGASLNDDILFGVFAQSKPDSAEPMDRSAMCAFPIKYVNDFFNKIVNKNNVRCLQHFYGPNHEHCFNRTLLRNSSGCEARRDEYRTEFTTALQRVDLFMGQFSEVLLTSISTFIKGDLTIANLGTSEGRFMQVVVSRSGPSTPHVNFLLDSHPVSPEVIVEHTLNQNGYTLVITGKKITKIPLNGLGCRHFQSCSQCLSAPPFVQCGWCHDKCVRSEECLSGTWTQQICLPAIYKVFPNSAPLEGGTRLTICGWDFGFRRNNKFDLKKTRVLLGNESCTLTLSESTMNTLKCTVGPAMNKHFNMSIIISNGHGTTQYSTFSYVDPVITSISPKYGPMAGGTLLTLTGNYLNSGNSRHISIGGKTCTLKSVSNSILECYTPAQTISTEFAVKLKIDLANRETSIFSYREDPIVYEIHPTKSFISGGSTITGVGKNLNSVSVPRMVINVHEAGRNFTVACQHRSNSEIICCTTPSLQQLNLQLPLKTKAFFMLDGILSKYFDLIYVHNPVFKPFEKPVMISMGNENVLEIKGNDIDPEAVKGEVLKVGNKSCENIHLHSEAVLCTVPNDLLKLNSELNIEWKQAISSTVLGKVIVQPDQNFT
# [33] = biological target: T12, rHuman Notch-1/Fc Chimera, CF (R&D Systems Cat#3647-TK) (human, UniProt P46531 19-526); assay: as above
# T12 construct: Bought recombinant Fc chimera; Fc part of the bought chimera not given
# [34] = biological target: T13, rHuman P-Cadherin/Fc Chimera, CF (R&D Systems Cat#861-PC) (human, UniProt P22223 108-654); assay: as above
# T13 construct: Bought recombinant Fc chimera; Fc part of the bought chimera not given
# [35] = biological target: T2, rHuman Erythropoietin R/Fc Chimera, CF …; assay: as above
binder,measurement,setting,value
B1,ECL signal/noise ratio,[1],2.5
same,ECL signal/noise ratio,[2],3
same,ECL signal/noise ratio,[3],2.6
same,ECL signal/noise ratio,[4],3.4
same,ECL signal/noise ratio,[5],1.7
same,ECL signal/noise ratio,[6],1.4
same,ECL signal/noise ratio,[7],2.9
same,ECL signal/noise ratio,[8],1.2
same,ECL signal/noise ratio,[9],2.2
same,ECL signal/noise ratio,[10],1.8
same,ECL signal/noise ratio,[11],1.1
same,ECL signal/noise ratio,[12],1.5
same,ECL signal/noise ratio,[13],1.1
same,ECL signal/noise ratio,[14],1.6
same,ECL signal/noise ratio,[15],2
same,ECL signal/noise ratio,[16],21.1
same,ECL signal/noise ratio,[17],4.4
same,ECL signal/noise ratio,[18],2.5
same,ECL signal/noise ratio,[19],1.6
same,ECL signal/noise ratio,[20],2.6
same,ECL signal/noise ratio,[21],1.8
same,ECL signal/noise ratio,[22],2.2
same,ECL signal/noise ratio,[23],36.3
same,ECL signal/noise ratio,[24],3.1
same,ECL signal/noise ratio,[25],2.9
same,ECL signal/noise ratio,[26],1.3
same,ECL signal/noise ratio,[27],1.6
same,ECL signal/noise ratio,[28],2.8
B2,ELISA (Signal-Noise),[29],0.07
same,ECL signal,[30],12900
B3,ECL signal,[31],761
same,ECL signal,[32],735
same,ECL signal,[33],561
same,ECL signal,[34],302
same,ECL signal,[35],424
B4,ELISA (Signal-Noise),[29],0.05
same,ECL signal,[30],8430
